Experimental findings from patent US7097990B2, “Method of screening cell death inhibitor” (Astellas Pharma Inc., priority 2001, dated 2006) are described below.

The assay has as its target PARP (Cricetulus griseus, UniProt Q9R152). The assay can be described thus: PARP inhibition in transfected CHO dhfr- cells, 3H-NAD incorporation. The conditions noted are these: H2O2 0.06%; cells co-expressing LTRPC2 and PARP-1 dominant negative mutant versus LTRPC2 alone.

Sequence of PARP (Q9R152 2-1013): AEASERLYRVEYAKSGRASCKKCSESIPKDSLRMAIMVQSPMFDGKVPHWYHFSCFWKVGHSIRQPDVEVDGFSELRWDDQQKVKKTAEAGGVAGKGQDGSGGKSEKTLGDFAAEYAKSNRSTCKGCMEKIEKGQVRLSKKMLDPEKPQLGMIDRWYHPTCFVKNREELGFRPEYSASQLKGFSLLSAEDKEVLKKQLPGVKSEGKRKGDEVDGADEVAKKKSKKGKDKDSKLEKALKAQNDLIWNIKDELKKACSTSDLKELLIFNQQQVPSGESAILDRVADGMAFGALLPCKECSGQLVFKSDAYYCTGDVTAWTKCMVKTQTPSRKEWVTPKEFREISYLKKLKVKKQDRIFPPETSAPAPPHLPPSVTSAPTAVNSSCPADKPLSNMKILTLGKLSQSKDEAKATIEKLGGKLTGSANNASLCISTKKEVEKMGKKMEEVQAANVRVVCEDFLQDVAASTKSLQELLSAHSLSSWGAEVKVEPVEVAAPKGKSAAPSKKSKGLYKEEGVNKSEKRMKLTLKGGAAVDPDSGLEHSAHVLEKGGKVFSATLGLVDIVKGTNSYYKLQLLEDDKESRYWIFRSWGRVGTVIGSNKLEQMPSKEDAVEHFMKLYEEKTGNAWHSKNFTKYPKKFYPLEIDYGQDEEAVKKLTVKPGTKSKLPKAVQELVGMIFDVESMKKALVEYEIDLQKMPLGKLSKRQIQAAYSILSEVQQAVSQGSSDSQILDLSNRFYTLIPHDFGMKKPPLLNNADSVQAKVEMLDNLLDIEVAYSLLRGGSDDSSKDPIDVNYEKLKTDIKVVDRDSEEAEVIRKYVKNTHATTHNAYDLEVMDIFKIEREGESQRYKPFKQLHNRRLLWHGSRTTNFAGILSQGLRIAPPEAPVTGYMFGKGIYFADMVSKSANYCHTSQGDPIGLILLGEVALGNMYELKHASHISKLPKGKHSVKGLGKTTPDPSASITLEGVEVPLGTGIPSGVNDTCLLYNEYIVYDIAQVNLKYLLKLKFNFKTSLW

Consider “PARP-1 dominant negative mutant: human PARP-1 DNA binding region (positions 1 to 374), amino acid sequence SEQ ID NO:20, co-expressed in cells”, for which the “3H radioactivity in comparison with the control cells” value was determined as 67%.
